Here are results for three molecules from patent publication US20170014524A1 (CALIFORNIA INSTITUTE FOR BIOMEDICAL RESEARCH, published 2017).

The target of this test is CXCR4 (C-X-C chemokine receptor type 4) (UniProt P61073 1-352, limits assumed). The test is described as follows: cell-based or functional assay.
Sequence of CXCR4 (C-X-C chemokine receptor type 4) (P61073 whole entry): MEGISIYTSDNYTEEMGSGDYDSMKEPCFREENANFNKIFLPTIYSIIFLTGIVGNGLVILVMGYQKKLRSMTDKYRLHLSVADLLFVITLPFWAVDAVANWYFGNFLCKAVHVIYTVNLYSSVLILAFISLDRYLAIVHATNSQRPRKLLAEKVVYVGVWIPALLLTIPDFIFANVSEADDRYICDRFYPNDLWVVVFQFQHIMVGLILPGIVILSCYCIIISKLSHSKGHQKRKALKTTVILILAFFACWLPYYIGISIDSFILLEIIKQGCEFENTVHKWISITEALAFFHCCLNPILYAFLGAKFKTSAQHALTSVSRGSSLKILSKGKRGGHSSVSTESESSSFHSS

B1: anti-CXCR4 IgG antibody HLCX (antibody, V domains shown)
VH: QVQLVESGGGLVQPGGSLRLSCAASGFNIKDTYIHWVRQAPGKGLEWVARIYPTNGYTRYADSVKGRFTISADTSKNTAYLQMNSLRAEDTAVYYCSRETKKYQSYRKCRGGRRWCYQKSYTYNYEDYWGQGTLVTVSS
VL: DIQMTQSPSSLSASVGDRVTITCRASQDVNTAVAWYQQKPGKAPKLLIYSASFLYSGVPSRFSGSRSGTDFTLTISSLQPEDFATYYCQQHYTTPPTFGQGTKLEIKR
Consider B1, for which the “IC50 (nM), cytotoxicity, Ramos (CXCR4+) cells, CellTiter-Glo, 4 days” value (“IC50 (nM), cytotoxicity, Ramos” below) is 89.4 nM.

B2: anti-CXCR4-NC-MMAE conjugate (antibody, human IgG1, kappa, V domains shown)
VH: B1 VH
VL: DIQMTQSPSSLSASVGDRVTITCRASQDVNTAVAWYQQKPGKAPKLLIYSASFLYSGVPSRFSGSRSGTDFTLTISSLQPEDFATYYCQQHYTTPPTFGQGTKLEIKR
modifications: MMAE on a non-cleavable linker coupled by NHS ester to surface-exposed lysine residues, non-specific; estimated DAR ~2-3
For the molecule B2, the “IC50 (nM), cytotoxicity, Jurkat (CXCR4+) cells, CellTiter-Glo, 4 days” value came to 4.6 nM and the “IC50 (nM), cytotoxicity, Ramos” value stood at 0.89 nM.

B3: anti-CXCR4-ValCit-MMAE conjugate (antibody, human IgG1, kappa, V domains shown)
VH: B1 VH
VL: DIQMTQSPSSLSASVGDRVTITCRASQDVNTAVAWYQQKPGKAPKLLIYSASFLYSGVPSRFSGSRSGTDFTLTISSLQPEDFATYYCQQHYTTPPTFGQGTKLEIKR
modifications: auristatin on a Val-Cit linker coupled by NHS ester to surface-exposed lysine residues, non-specific; estimated DAR ~2-3
Consider B3, for which the “IC50 (nM), cytotoxicity, Jurkat (CXCR4+) cells, CellTiter-Glo, 4 days” value is 9.2 nM and the “IC50 (nM), cytotoxicity, Ramos” value turned out to be 2 nM.
